Measured values: PMC12901311, “HEXIM1 inter-monomer autoinhibition governs 7SK RNA binding specificity and P-TEFb inactivation” (Nature Communications, 2024)
Positions count from the first letter of the chain named. Numbers in names are those of the source. Where “and” joins values, the source holds several entries; their conditions need not be identical. Equal values may be shown once.

T1: Hexim1-A12m (human) (UniProt O94992)
T1 sequence: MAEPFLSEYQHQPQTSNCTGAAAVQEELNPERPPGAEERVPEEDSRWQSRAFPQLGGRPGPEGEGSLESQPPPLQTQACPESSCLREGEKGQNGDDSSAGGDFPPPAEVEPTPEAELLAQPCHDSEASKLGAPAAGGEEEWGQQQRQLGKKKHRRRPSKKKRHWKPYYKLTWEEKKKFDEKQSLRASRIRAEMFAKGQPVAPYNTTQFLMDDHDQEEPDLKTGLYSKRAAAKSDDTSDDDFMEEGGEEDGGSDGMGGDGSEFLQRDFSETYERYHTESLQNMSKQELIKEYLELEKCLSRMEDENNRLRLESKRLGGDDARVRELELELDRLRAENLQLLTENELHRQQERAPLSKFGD

T2: Hexim1-A3m (human) (UniProt O94992)
T2 sequence: T1 sequence

T3: Hexim1 BRARM1 (human, UniProt O94992 141-159)
T3 chain: WGQQQRQLGKKKHRRRPSK

B1: Full-length human Hexim1 protein (aa 1-359) (natural protein)
chain: GMAEPFLSEYQHQPQTSNCTGAAAVQEELNPERPPGAEERVPEEDSRWQSRAFPQLGGRPGPEGEGSLESQPPPLQTQACPESSCLREGEKGQNGDDSSAGGDFPPPAEVEPTPEAELLAQPCHDSEASKLGAPAAGGEEEWGQQQRQLGKKKHRRRPSKKKRHWKPYYKLTWEEKKKFDEKQSLRASRIRAEMFAKGQPVAPYNTTQFLMDDHDQEEPDLKTGLYSKRAAAKSDDTSDDDFMEEGGEEDGGSDGMGGDGSEFLQRDFSETYERYHTESLQNMSKQELIKEYLELEKCLSRMEDENNRLRLESKRLGGDDARVRELELELDRLRAENLQLLTENELHRQQERAPLSKFGD
notes: non-native glycine that remains at the N-terminus after TEV protease cleavage; Hexim1, human, aa 1-359; also called Hexim1 dimer; full-length Hexim1; not shown: His6, N-terminal, cleaved; MBP, N-terminal, cleaved
B2: Monomeric Hexim1 BR-L-AR (aa 142-253) (domain or fragment, human)
chain: GGQQQRQLGKKKHRRRPSKKKRHWKPYYKLTWEEKKKFDEKQSLRASRIRAEMFAKGQPVAPYNTTQFLMDDHDQEEPDLKTGLYSKRAAAKSDDTSDDDFMEEGGEEDGGSD
notes: non-native glycine that remains at the N-terminus after TEV protease cleavage; Hexim1, human, residues 142-253: Basic Region, linker with PYNT motif, Acidic Region; 15N-labelled as the reporter in the PRE NMR experiments; unlabelled in NativePAGE and mass photometry; also called Hexim1 central region construct; not shown: His6, N-terminal, cleaved; MBP, N-terminal, cleaved
B3: Hexim1 BR-L-AR(A201C^MTSL) (domain or fragment, human)
chain: B2 chain with A61C
modifications: MTSL nitroxide spin label on C201
notes: non-native glycine that remains at the N-terminus of BR-L-AR after TEV protease cleavage; Hexim1, human, residues 142-253 (BR-L-AR) with A201C; 15N-labelled; not shown: His6, N-terminal, cleaved; MBP, N-terminal, cleaved
B4: Hexim1 BR-L-AR(S183C^MTSL) (domain or fragment, human)
chain: B2 chain with S43C
modifications: MTSL nitroxide spin label on C183
notes: non-native glycine that remains at the N-terminus of BR-L-AR after TEV protease cleavage; Hexim1, human, residues 142-253 (BR-L-AR) with S183C; 15N-labelled; not shown: His6, N-terminal, cleaved; MBP, N-terminal, cleaved
B5: Hexim1 BR-L-AR(S226C^MTSL) (domain or fragment, human)
chain: B2 chain with S86C
modifications: MTSL nitroxide spin label on C226
notes: non-native glycine that remains at the N-terminus of BR-L-AR after TEV protease cleavage; Hexim1, human, residues 142-253 (BR-L-AR) with S226C; not shown: His6, N-terminal, cleaved; MBP, N-terminal, cleaved
B6: Hexim1 BR-L-AR(S237C^MTSL) (domain or fragment, human)
chain: B2 chain with S97C
modifications: MTSL nitroxide spin label on C237
notes: non-native glycine that remains at the N-terminus of BR-L-AR after TEV protease cleavage; Hexim1, human, residues 142-253 (BR-L-AR) with S237C; not shown: His6, N-terminal, cleaved; MBP, N-terminal, cleaved
B7: Hexim1 BR-L-AR(S233C^MTSL) (domain or fragment, human)
chain: B2 chain with S93C
modifications: MTSL nitroxide spin label on C233
notes: non-native glycine that remains at the N-terminus of BR-L-AR after TEV protease cleavage; Hexim1, human, residues 142-253 (BR-L-AR) with S233C; 14N in the inter-only experiment; not shown: His6, N-terminal, cleaved; MBP, N-terminal, cleaved
B8: Hexim1 L-AR-CC dimeric protein (domain or fragment, human, UniProt O94992 171-359, looked up)
chain: TWEEKKKFDEKQSLRASRIRAEMFAKGQPVAPYNTTQFLMDDHDQEEPDLKTGLYSKRAAAKSDDTSDDDFMEEGGEEDGGSDGMGGDGSEFLQRDFSETYERYHTESLQNMSKQELIKEYLELEKCLSRMEDENNRLRLESKRLGGDDARVRELELELDRLRAENLQLLTENELHRQQERAPLSKFGD
notes: Hexim1, human; linker (L), Acidic Region (AR) and coiled-coil domain (CC, 254-359); source: E. coli BL21-GOLD(DE3), purified

Columns and labels:
[1] = biological target: T4, Hexim1 full-length (human, UniProt O94992 1-359); test: ITC; settings: N=1.40; protein in syringe (inferred from N); ITC: 20 mM HEPES pH 7.5, 150 mM KCl, 1 mM TCEP, 295 K; NMR: 50 mM Na phosphate pH 6.2, 150 mM KCl, 0.02% NaN3, 5% D2O, 298 K; EMSA: binding buffer (20 mM HEPES …)
[2] = biological target: T1, Hexim1-A12m (human); test: ITC; settings: ITC: 20 mM HEPES pH 7.5, 150 mM KCl, 1 mM TCEP, 295 K; NMR: 50 mM Na phosphate pH 6.2, 150 mM KCl, 0.02% NaN3, 5% D2O, 298 K; EMSA: binding buffer (20 mM HEPES …)
[3] = biological target: T2, Hexim1-A3m (human); test: ITC; settings: N=0.34; ITC: 20 mM HEPES pH 7.5, 150 mM KCl, 1 mM TCEP, 295 K; NMR: 50 mM Na phosphate pH 6.2, 150 mM KCl, 0.02% NaN3, 5% D2O, 298 K; EMSA: binding buffer (20 mM HEPES …)
[4] = biological target: the molecule itself; test: mass photometry; Refeyn TwoMP; freshly purified proteins alone or mixed as complexes, drop-diluted into phosphate-buffered saline pH 7.4 to 40 nM final total protein
[5] = biological target: T4, Hexim1 full-length; test: ITC; N=0.76; ITC: 20 mM HEPES pH 7.5, 150 mM KCl, 1 mM TCEP, 295 K; NMR: 50 mM Na phosphate pH 6.2, 150 mM KCl, 0.02% NaN3, 5% D2O, 298 K; EMSA: binding buffer (20 mM HEPES); settings: protein: recombinant; tags: MBP-His6 removed by TEV; non-native N-terminal G remains; chain copies: 2; hairpin with U40U41 and U63 bulges
[6] = biological target: Hexim1 NBLA (N-BR-L-AR) (human, UniProt O94992 1-253); test: ITC; N=0.81; ITC: 20 mM HEPES pH 7.5, 150 mM KCl, 1 mM TCEP, 295 K; NMR: 50 mM Na phosphate pH 6.2, 150 mM KCl, 0.02% NaN3, 5% D2O, 298 K; EMSA: binding buffer (20 mM HEPES); settings: protein: recombinant; hairpin with U40U41 and U63 bulges
[7] = biological target: the molecule itself; test: paramagnetic relaxation enhancement (PRE) NMR; total interaction experiment: 15N-labelled and MTSL-tagged BR-L-AR alone, captures both intra- and inter-monomer contacts; 15N-1H HSQC, 290.15 K, 600 MHz; 50 mM sodium phosphate pH 6.2, 150 mM KCl
[8] = biological target: B2; test: paramagnetic relaxation enhancement (PRE) NMR; inter-only experiment: 1:1 mixture of 15N-labelled untagged BR-L-AR (reporter) with 14N-labelled MTSL-tagged BR-L-AR (broadener); 15N-1H HSQC, 290.15 K, 600 MHz; 50 mM sodium phosphate pH 6.2, 150 mM KCl; settings: both partners purified
[9] = biological target: T4, Hexim1 full-length; test: ITC; N=0.47; ITC: 20 mM HEPES pH 7.5, 150 mM KCl, 1 mM TCEP, 295 K; NMR: 50 mM Na phosphate pH 6.2, 150 mM KCl, 0.02% NaN3, 5% D2O, 298 K; EMSA: binding buffer (20 mM HEPES); settings: protein: recombinant; tags: MBP-His6 removed by TEV; non-native N-terminal G remains; chain copies: 2; hairpin
[10] = biological target: T3, Hexim1 BRARM1; test: NMR; Site2 shifted, not Site4; ITC: 20 mM HEPES pH 7.5, 150 mM KCl, 1 mM TCEP, 295 K; NMR: 50 mM Na phosphate pH 6.2, 150 mM KCl, 0.02% NaN3, 5% D2O, 298 K; EMSA: binding buffer (20 mM HEPES); settings: protein: recombinant; tags: GB1-His6 removed by TEV; non-native N-terminal G; hairpin
[11] = biological target: T4, Hexim1 full-length; test: ITC; N=0.49; ITC: 20 mM HEPES pH 7.5, 150 mM KCl, 1 mM TCEP, 295 K; NMR: 50 mM Na phosphate pH 6.2, 150 mM KCl, 0.02% NaN3, 5% D2O, 298 K; EMSA: binding buffer (20 mM HEPES); settings: protein: recombinant; tags: MBP-His6 removed by TEV; non-native N-terminal G remains; chain copies: 2; hairpin
[12] = biological target: Hexim1 BR-L-AR (human, UniProt O94992 142-253); test: NMR; ITC: 20 mM HEPES pH 7.5, 150 mM KCl, 1 mM TCEP, 295 K; NMR: 50 mM Na phosphate pH 6.2, 150 mM KCl, 0.02% NaN3, 5% D2O, 298 K; EMSA: binding buffer (20 mM HEPES); settings: protein: recombinant; tags: MBP-His6 removed by TEV; non-native N-terminal G; hairpin

Molecule 7SK SL1-d(api) has a Kd [1] of 96 nM.

For “GGAUGUGAGGGCGAUCUGGCUUCGGCCUUCCUCCCUCACCGCUCCA [7SK SL1-p]”, the binding signal (fold tighter than wild-type Hexim1) [2] was 6 and the Kd [3] was 276 nM.

With B1 the “stoichiometry N” value [4] was 2.

Work on GGCCAUUGAUCGCCUUCGGGCUGAUCUGGCC (structured_RNA) [7SK SL1-dI] yielded a Kd [5] of 780 ± 25 nM and a Kd [6] of 83 ± 28 nM.

In the case of B2, the “stoichiometry N” value [4] is reported as 3 and 4.

B3: binds [7].

B4: binds [7].

B5: binds [7]; binds [8].

B6: binds [8].

B7: binds [8].

Work on GGCUGUCACCUUCGGGCUAGGCGGCC (structured_RNA) [7SK SL1-dII] yielded a Kd [9] of 1220 ± 129 nM.

GGCUGCGACAUCUGUCACCUUCGGGCUAGGCGGGUGUCCCC (structured_RNA) [7SK SL1-dIIm]: binds [10].

In the case of B8, the “stoichiometry N” value [4] is reported as 2.

Molecule GGAUGUGAGGGCGAUCUGGCUUCGGCCUUCCUCCCUCACCGCUCCA (structured_RNA) [7SK SL1-p] has a Kd [11] of 2210 ± 197 nM.

GGCGAUCUGGCUGCGACAUCUGUCACCCCAUUGAUCGCC (structured_RNA) [7SK SL1alt (circular), loop version not stated]: binds [12].
